Measurements from article PMC3170320, “Minimal Antizyme Peptide Fully Functioning in the Binding and Inhibition of Ornithine Decarboxylase and Antizyme Inhibitor” (PLoS ONE, 2011).

Target: human ornithine decarboxylase, wild type (human) (UniProt P11926)
Sequence (P11926 whole entry): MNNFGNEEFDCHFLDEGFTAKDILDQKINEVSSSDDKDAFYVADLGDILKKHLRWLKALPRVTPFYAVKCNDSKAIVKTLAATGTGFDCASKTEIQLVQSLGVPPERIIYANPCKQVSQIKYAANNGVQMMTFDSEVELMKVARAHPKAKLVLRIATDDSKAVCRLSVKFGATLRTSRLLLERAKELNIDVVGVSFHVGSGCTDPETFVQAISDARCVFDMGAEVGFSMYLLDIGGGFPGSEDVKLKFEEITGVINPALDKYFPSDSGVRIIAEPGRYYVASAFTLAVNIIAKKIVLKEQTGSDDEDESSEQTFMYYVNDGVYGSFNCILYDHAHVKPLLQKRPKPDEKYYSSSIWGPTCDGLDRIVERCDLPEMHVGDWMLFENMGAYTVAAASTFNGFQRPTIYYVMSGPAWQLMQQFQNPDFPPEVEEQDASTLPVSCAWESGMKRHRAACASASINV

Chain of human antizyme peptide AZ_114-228 (P54368 114-228): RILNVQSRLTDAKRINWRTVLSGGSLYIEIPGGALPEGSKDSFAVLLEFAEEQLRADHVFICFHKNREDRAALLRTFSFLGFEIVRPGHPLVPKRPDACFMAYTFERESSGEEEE
Chain of human antizyme peptide AZ_87-228 (P54368 87-228): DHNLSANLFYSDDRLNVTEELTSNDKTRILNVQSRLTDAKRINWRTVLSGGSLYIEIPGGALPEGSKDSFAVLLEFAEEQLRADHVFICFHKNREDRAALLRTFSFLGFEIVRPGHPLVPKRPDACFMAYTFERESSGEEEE
Chain of human antizyme peptide AZ_106-228 (P54368 106-228): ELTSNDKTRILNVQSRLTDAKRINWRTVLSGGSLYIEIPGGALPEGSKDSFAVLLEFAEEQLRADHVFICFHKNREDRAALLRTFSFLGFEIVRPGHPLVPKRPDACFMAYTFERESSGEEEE
Chain of human antizyme peptide AZ_126-228 (P54368 126-228): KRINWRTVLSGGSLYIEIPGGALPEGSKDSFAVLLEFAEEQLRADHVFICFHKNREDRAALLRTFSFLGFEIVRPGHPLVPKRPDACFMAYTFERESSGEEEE
Chain of human antizyme peptide AZ_100-124 (P54368 100-124): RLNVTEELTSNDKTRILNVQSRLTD
Chain of human antizyme peptide AZ_95-169 (P54368 95-169): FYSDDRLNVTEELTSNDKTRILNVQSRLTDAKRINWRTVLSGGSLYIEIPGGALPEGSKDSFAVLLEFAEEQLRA
Chain of human antizyme peptide AZ_100-135 (P54368 100-135): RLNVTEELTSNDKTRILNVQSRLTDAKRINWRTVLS

Substance | IC50 of inhibition of ODC enzyme activity (ODC 0.19 µM), without AZI [nM]
human antizyme peptide AZ_100-124 (from UniProt P54368 100-124) (domain or fragment) | 820
human antizyme peptide AZ_114-228 (from UniProt P54368 114-228) (domain or fragment) | 970
human antizyme peptide AZ_87-228 (from UniProt P54368 87-228) (domain or fragment) | 170
human antizyme peptide AZ_100-135 (from UniProt P54368 100-135) (domain or fragment) | 860
human antizyme peptide AZ_126-228 (from UniProt P54368 126-228) (domain or fragment) | 1190
human antizyme peptide AZ_95-169 (from UniProt P54368 95-169) (domain or fragment) | 370
human antizyme peptide AZ_106-228 (from UniProt P54368 106-228) (domain or fragment) | 370
